Target: mononucleosomes reconstituted by salt dialysis with purified recombinant Drosophila core histones (Drosophila), P84051
Test: native gel or EMSA; gel mobility shift; 147 bp X. borealis 5S rDNA mononucleosomes (60 nM) with indicated amounts of Dsup; HEG buffer (25 mM Hepes K+, pH 7.6, 0.1 mM EDTA, 10% glycerol), 100 mM KCl, BSA; 30°C 30 min; nondenaturing 4.5% polyacrylamide gel at 4°C, ethidium bromide
Details: remark: other sources report otherwise

B1: Ramazzottius varieornatus damage suppressor protein (Rv Dsup), P0DOW4 1-445 (natural protein)
chain: MASTHQSSTEPSSTGKSEETKKDASQGSGQDSKNVTVTKGTGSSATSAAIVKTGGSQGKDSSTTAGSSSTQGQKFSTTPTDPKTFSSDQKEKSKSPAKEVPSGGDSKSQGDTKSQSDAKSSGQSQGQSKDSGKSSSDSSKSHSVIGAVKDVVAGAKDVAGKAVEDAPSIMHTAVDAVKNAATTVKDVASSAASTVAEKVVDAYHSVVGDKTDDKKEGEHSGDKKDDSKAGSGSGQGGDNKKSEGETSGQAESSSGNEGAAPAKGRGRGRPPAAAKGVAKGAAKGAAASKGAKSGAESSKGGEQSSGDIEMADASSKGGSDQRDSAATVGEGGASGSEGGAKKGRGRGAGKKADAGDTSAEPPRRSSRLTSSGTGAGSAPAAAKGGAKRAASSSSTPSNAKKQATGGAGKAAATKATAAKSAASKAPQNGAGAKKKGGKAGGRKRK
Binder B1 has a stoichiometry N (molecules of Rv Dsup per nucleosome) of 2.

From publication PMC6773438
